Key:
[1] = target: T1, Cy5-labeled proliferating cell nuclear antigen (PCNA) (human, UniProt P12004 1-261, Cy5 maleimide on cysteine(s), positions not stated); assay: single-molecule two-colour fluorescence imaging (Cy3-Cy5 co-localisation, FRET, Cy3 photobleaching steps); Cy5-PCNA loaded by RFC on bi-biotinylated lambda DNA on the DNA skybridge; 1 μM PAF15-Cy3 in reaction buffer incubated 10 min, unbound washed out; images 10-15 min after the start of washing; 100 mM potassium glutamate; room temperature (approximately 22°C); settings: both partners purified
[2] = target: T1, Cy5-labeled proliferating cell nuclear …; assay: single-molecule two-colour fluorescence imaging (Cy3-Cy5 co-localisation, Cy3 photobleaching steps); Cy5-PCNA loaded by RFC on bi-biotinylated lambda DNA on the DNA skybridge; 1 μM PAF15-Cy3 in reaction buffer incubated 10 min, unbound washed out; images 10-15 min after the start of washing; 150 mM potassium glutamate; room temperature (approximately 22°C); settings: both partners purified

T1 sequence (P12004 whole entry): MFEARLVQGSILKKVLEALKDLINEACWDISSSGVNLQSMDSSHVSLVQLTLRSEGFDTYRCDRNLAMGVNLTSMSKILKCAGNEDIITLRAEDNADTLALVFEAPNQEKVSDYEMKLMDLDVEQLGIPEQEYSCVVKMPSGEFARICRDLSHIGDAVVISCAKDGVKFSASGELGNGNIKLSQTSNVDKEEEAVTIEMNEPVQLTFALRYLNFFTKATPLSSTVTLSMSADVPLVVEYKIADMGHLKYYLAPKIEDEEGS

stoichiometry N [1]: 2 PAF15 per PCNA ring
stoichiometry N [2]: 1 PAF15 per PCNA ring
B1: Cy3-labeled PAF15 (Cys54Ser variant, Cy3 at Cys99) (natural protein, human, UniProt Q15004 2-111, looked up)
chain: VRTKADSVPGTYRKVVAARAPRKVLGSSTSATNSTSVSSRKAENKYAGGNPVSVRPTPKWQKGIGEFFRLSPKDSEKENQIPEEAGSSGLGKAKRKACPLQPDHTNDEKE
modifications: Cy3 on Cys99 (maleimide-thiol reaction)

Source: doi:10.1101/2025.11.15.688598 (bioRxiv, 2025)
